From publication PMC12693566 come the findings set out here.

For this assay, the target named is UNC-119 tagged with the C-terminal fragment of Venus (C. elegans) (UniProt Q10658). In words: split reporter (BiFC, NanoBiT); BiFC in vivo in transgenic C. elegans (AWC neurons); ODR-3 tagged with VN, partner tagged with VC; read-out is the percentage of animals showing Venus fluorescence.
Chain of UniProt Q10658 (Q10658 whole entry, the tested form may be a part): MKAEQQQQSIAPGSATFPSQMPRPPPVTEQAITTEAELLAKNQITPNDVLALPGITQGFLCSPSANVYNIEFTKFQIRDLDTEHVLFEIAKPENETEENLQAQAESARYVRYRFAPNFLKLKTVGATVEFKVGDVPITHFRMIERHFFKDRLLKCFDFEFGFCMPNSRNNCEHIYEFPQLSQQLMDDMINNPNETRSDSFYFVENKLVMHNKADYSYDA

As to “ODR-3^A328P tagged with the N-terminal Venus fragment (from UniProt Q18434 1-356) (natural protein)”, the percent of animals with BiFC is 51%.

Consider “ODR-3^WT tagged with the N-terminal Venus fragment (from UniProt Q18434 1-356) (natural protein)”, for which the percent of animals with BiFC is 81%.
